Experimental data reported in the DeepSol protein solubility set.

Assay: soluble on expression in E. coli; label from the status in PepcDB or PDB records

Row | Sequence | soluble on expression in E. coli
1 | MGLTEQKQKHMEQLSDKNGIISALAFDQRGALKRLMAKYQSEEPTVSQIEALKVLVAEELTPYASSMLLDPEYGLPATKVLDDNAGLLLAYEKTGYDTSSTKRLPDCLDIWSAKRIKEEGADAVKFLLYYDVDSSDEVNEEKEAYIERIGSECVAEDIPFFLEILSYDEKITDSSGIEYAKIKPRKVIEAMKVFSNPRFNIDVLKVEVPVNMDYVEGFAQGETAYNKATAAAYFREQDQATLLPYIFLSAGVPAQLFQETLVFAKEAGAKFNGVLCGRATWAGSVKEYVEKGEAGARQWLRTIGFQNIDELNKILQKTATSWKER | not soluble
2 | MGLTISSLFSRLFGKKQMRILMVGLDAAGKTTILYKLKLGEIVTTIPTIGFNVETVEYKNICFTVWDVGGQDKIRPLWRHYFQNTQGLIFVVDSNDRERIQEGAAVLEKMLLEDELQDAVLLLFANKQDLPNAMAISEMTDKLGLQSLRNRTWYVQATCATQGTGLYEGLDWLSHELSNVK | soluble
3 | MGLWYRMLENQDLEEVITVRVQDPRVQNEGSWNSYVDYKIFLHTNSKAFTAKTSCVRRRYREFVWLRKQLQRNAGLVPVPELPGKSTFFGGSDEFIEKRRQGLQHFLEKVLQSVVLLSDSQLHLFLQSQLSVPEIEACVQGRGAMTVSDAILSYAMSNCGWAQEERQSTSHLAKGDQLNSCCFLPRSGRRSSPSPPLSEEKEQLETWAPVMDSEGPSSESPTLLPSSSLPACWDPARPEEGLSVSQPARRAVAADQAGPMEPTQLDTAWDK | soluble
4 | MGMKFRVVCRKLYDYVRYDLKEIAFPSSLPDPPHIKKRPKLTLKDKWCILKEATRLYGASWVRDIGPDLRPNDYKKVKEEPDIKTEEGSSEPTTVEDLLGALKGGAEKAKPALQRMYMARASNYTDALKNYVESYKEGLKEHLEEEAMGKGHRQGNDATKPPQSPSS | soluble
5 | MGMLDVSLHKITQKSQSLLHRTADRHLRLAVTGLSGAGKTAFITGLVNQLLNSGAVSTVSHSRQNGLPLWQVSREQRLLGVKRAMQPDLEIASFDYQGAMLALTSNPPTWPESTRTISELRLAIKYRPEKGLLAKFADAATLYLDIVDYPGEWLLDLPMLRQSYIEWCTTQQQRIAVLKSSPLYAGFETSLNALNLAAMADESELKRLADQYQQLLHDLVHVQGYYQAQPGRMLLPGEWQGAPLLAFFPLLSVTNAQWSNLKQSDKHSAFHVLEKRYQEYVAKVVKPFYKQHFAGFDRQVVLVDCFSALNRGKSQFEDMGAALNAIMESFQYGQSSYLRRLFAPRIDRLLFAASKVDHVTRDQQSHVLSLLTDMLKHSQHFAGFEGCKVETMAISAIKATRHGMVTTQEGDVEVVQGTGLNGQALTLFPGEVPTRLPEPDFWREQGFNFIGFAPPDNTNVDPSSVHFDHIRLDHLLQYLVGDKLE | not soluble
6 | MGMTRNLLAAGLAAVLALPALAAELVMVEQHGCEWCARWNEEIAPIYPKTAEGAFAPLRRVDLRAIPADLETARRVVFTPTFLIVEDGRELARLEGYPGEDFFWPLLEQLLVDHAGFVPKKPGSS | not soluble
7 | MGNASENFDIEDLMSYGDDLINLLNVKNGFDIISQSSEQFKALNFACHEDFNQIQGSIEDCKTKLYACKKKTEEAYSDIAAEDEIERLQKELDEEMEREFKLKDELR | soluble
8 | MGNGDKVMSHWSFHIPRLHHHEHDHEKVPKGCLAVKVGQGEEQERFVIPVMYFNHPLFGQLLKEAEEEFGFAQKGTITIPCHVEEFRYVQGLIDRENTRFLGTNLLDHHHHHHNHLIRCFRV | not soluble
9 | MGNKIHPIGFRLGITRDWESRWYAGKKQYRHLLLEDQRIRGLLEKELYSAGLARVDIERAADNVAVTVHVAKPGVVIGRGGERIRVLREELAKLTGKNVALNVQEVQNPNLSAPLVAQRVAEQIERRFAVRRAIKQAVQRVMESGAKGAKVIVSGRIGGAEQARTEWAAQGRVPLHTLRANIDYGFALARTTYGVLGVKAYIFLGEVIGGQKPKARPELPKAEERPRRRRPAVRVKKEE | soluble
10 | MGNNQPGGMYKRDRPYDSEKSGSHSRSRGGIPSSSPSNEDECPVQMKIAKGDDKSKFPVVFKWNINNATPRQVYICGSWDGWNTKIPLVKSTSDFSTIVDLEPGKHEYKFMVDSKWVVDDNQQKTGNNLGGENNVVMIDEADFEVFDALDKDLASSNAGEALRNSHPTKESHDTPNDRELEKLHQFGQETPTRVDFNKAAAPPVLPPHLLQVILNKDTPVQCDPNVLPEPDHVMLNHLYALSIKDGVMVLSATHRYRKKFVTTLLYKPI | soluble
11 | MGNQRHHYNDYEDVRMLKWVARNDKSLGPFGIITWQLYVEAYNCPYSVQSLCGRMRRQIVPNIDYYSRHLKSSDLISLERRFGSRLGAETRKYIRNLAVKTVKIVQVVASRPVEKNSEIEVQKVASLELQAAPTAPTTSAAQLGKTKSPGARTQRIERNDELSRDVFESSCASTIVEPEPPQEEPPQRSHNWKTEMRKIAGQAAQAINDLIRQTVENNDFNKKMFAELENQQNLDHLYGKMFDDPNKADWIMIDVKKFTENHLRMQYFRKIREELHKRFTNQHIIRAVFCFFQFFEYYVTVCVDESTDNYILLMNKVLEMSIKLLPLYIVHC | not soluble
12 | MGNRKKKCGIVTFHSSHNYGSVLQAYAMVRVMQKMGLDAELIDFRHPRTTDMYEWRLWSTYKNWKWNLRELVLRGLFSFGKKREQVFSDFIENVLKKSKRVKDKNDIPDIYDILVCGSDQIWNPKASGENDPIYYLDFGTTTCKFSYAASSGSVRFGDENPELFKKYLQNLKSIGVRERFMQEYIKEELGLVSEINPDPTFLLNASEWSEIEKPYKGLPDNYLLIYTIKRPKETINFAHQVAVSLNLPTVQICNDRDLNALMHKDVDYRLMNVSPQQFLWLFHHASFIVTNTFHGNMFSVIYRKNFVHYGINSSDTRISTLHDEIRLKNKIVSSFEIDQRIIDYNLIEENVAYYCKCGLNFIQANINDD | not soluble
13 | MGPLPRKGNMKQKITDYLDEIYGGTFTATHLQKLVTRLESAKRLITQRRKKHWDESDVVLITYADQFHSNDLKPLPTFNQFYHQWLQSIFSHVHLLPFYPWSSDDGFSVIDYHQVASEAGEWQDIQQLGECSHLMFDFVCNHMSAKSEWFKNYLQQHPGFEDFFIAVDPQTDLSAVTRPRALPLLTPFQMRDHSTRHLWTTFSDDQIDLNYRSPEVLLAMVDVLLCYLAKGAEYVRLDAVGFMWKEPGTSCIHLEKTHLIIKLLRSIIDNVAPGTVIITETNVPHKDNIAYFGAGDDEAHMVYQFSLPPLVLHAVQKQNVEALCAWAQNLTLPSSNTTWFNFLASHDGIGLNPLRGLLPESEILELVEALQQEGALVNWKNNPDGTRSPYEINVTYMDALSRRESSDEERCARFILAHAILLSFPGVPAIYIQSILGSRNDYAGVEKLGYNRAINRKKYHSKEITRELNDEATLRHAVYHELSRLITLRRSHNEFHPDNNFTIDTINSSVMRIPRSNADGNCLTGLFNVSKNIQHVNITNLHGRDLISEVDILGNEITLRPWQVMWIK | not soluble
14 | MGPTQETYTIVRYQSGTFSKQLDEIVTESPITIKLNGEEYVTVVCTPNYIEDMVIGFLISEGIISSYNDVEELWVQKDNGIVHVKSSKVNPLYQTLYNKRYVTSCCGKGRQGFIFVNDAAKAKDLHDIHVKITPEECFYLMNTLQQSSTTFRQTGGVHNTALCDRNKILLSRMDIGRHNALDKIYGHCLRNDISVKGKIIAFSGRISSEILLKVSKIGCEIVLSKSAPTKLALQLAHDLGITVVGFIRNESCNIYTHPHRIDGYQSNNLEHHHHHH | soluble
15 | MGQWANLKAKVIQLWENTHESISQVGLLGDETGIIKFTIWKNAELPLLEQGESYLLRSVVVGEYNDRFQVQVNKNSSIEKLSEPIEVGLEHHHHHH | not soluble
16 | MGRHGKRGLNMTKQNSNTDRRSLQDCGVFSSAEYHSVGLSGGKDSSALLLLMLEKGMPIDSVIFADTGMDFPEMAAHIAKLDALLYRERGIHITTLRHPHGFEWLMFDEPKRKPSCLKNRARLGVPPYGNGWPGIKVRWCTGQLKTHLITKEVNRLKKEKNALHYIGIAADEAKRCKDAPNHRYPLVEWGVTEAQALQICYDRGFDFGGLYKIYHRASCWCCPLQRIGELRKLRQHHPELWARLWDMDNRARAQFGAGPLGQFKERWSIEQLDARFSREEKEERA | not soluble
17 | MGRKKRLKVERKAVAENQSQILTMVTISETEMEKEKTYTALQKLKSVSNDLFEECQRVFANTSFCTAELENIVGCFDRYEKEISTIPDEYRTHPCVIKFQNCIRALCNVVAKKLNNTTRDVETQTNFQSPRITWRQRYWMPYLNK | not soluble
18 | MGRMNVSMMRYLEGDHFRVLIAVEMGMKNHEVVPLALVSAIAGIHRGGVARTLNDLCKHSLVAFERSKKFDGYRLTIRGYDYLALRALCSREVVGSVGNQIGIGKESDVYVGGDPELNDLCLKFHRLGRTSFRKIKEKRDYHKKRKSASWLYLSRLAAAKEFAFLKALQERGFPVPKAVDVCRHLVVMQLVVGQTLCNVTHVEDAGALYDRLMALIVKMARHGVIHGDFNEFNLIMLEDERIVMIDFPQMVSIDHPNAEYYFDRDVTCVRTFFKRKFDYESEDWPKFDEVERKGNMDVLLEASGFTKKMALDLNKAYDEGDFLAHCEQELRNRQEEDLGEDEDDSDDSKSMEDIQEEPEDLEKDHEELQAQENTVKQQKIVLSQTTRFTDWLSDATNQLEAVDLDALKSEEGYKDIELPPEDFKRPADSENDDENDEDEEEGEEEDADGHVAVEEQVAKVVKKKRVPSGARSVASSAATFTAEDVKRRLALDRKRNKEKIRLKVKGKQSAVGRNRKDNKDVIAEYAGWI | not soluble
19 | MGRRGMWYPLAAMKGVLEALHQGDYDTAIDLLTRKALFGREREAKEAWLLLAEVYALYGEEGLEKAHHALEEAYALGGLEYDPLYRSLLAELLALEGRPEREVLPLFLPSRDPRVRYHQAQALFYLGRLEEALEALEAGLPPHLAWRAEGLKGRILERLGRHGEAALAYERGAELALGLERYWLLLDAAAMWLEAGEGERALLALKEAEAAVGEEDPEDAATRHYLLARAHLLLGNPGLALEEIRKALALEEESGHKAYGTPLVEGQALLQLGRYEEAMASFREALARADAGERPHVLHEMGVAALDHGAYPEAEEHLRALVREEGYPYLAQAYADLAEALYRQGRYQEAEAAAREAVARGAVAAGELVLGHVAYDLLHLEEALEHYRKAAESAEEGSREWVGAQEMVVDTLAQLGYRFPEEMVRRGQAVLPYLHPADEWHAALTAYVERAQALLREGKRLN | soluble
20 | MGRTTTPRDGDAALPPEYHGLHVAPVQPGHEAIEWLTPTNRSDRVRVVQHTCECRTTIYELCRSGGLMFIRRTVRTAKGARVHETERLITARMERLWMRLLLGQAR | not soluble
21 | MGRVYYINSHGTLSRHENTLRFENAEVKKDIPVEDVEEIFVFAELSLNTKLLNFLASKGIPLHFFNYYGYYTGTFYPRESSVSGHLLIKQVEHYLDAQKRLYLAKSFVIGSILNLEYVYKISADTYLNKVKETNSIPELMSVEAEFRKLCYKKLEEVTGWELEKRTKRPPQNPLNALISFGNSLTYAKVLGEIYKTQLNPTVSYLHEPSTKRFSLSLDVAEVFKPIFVDNLIIRLIQENKIDKTHFSTELNMTFLNEIGRKVFLKAFNELLETTIFYPKLNRKVSHRTLIKLELYKLIKHLLEEEVYLPLNYGGLK | soluble
